Experimental data from US12427210B2, “Compounds comprising a fibroblast activation protein ligand and use thereof” (priority 2019, dated 2025).

T1: 5-HT3 (h) (human), P46098
T1 chain: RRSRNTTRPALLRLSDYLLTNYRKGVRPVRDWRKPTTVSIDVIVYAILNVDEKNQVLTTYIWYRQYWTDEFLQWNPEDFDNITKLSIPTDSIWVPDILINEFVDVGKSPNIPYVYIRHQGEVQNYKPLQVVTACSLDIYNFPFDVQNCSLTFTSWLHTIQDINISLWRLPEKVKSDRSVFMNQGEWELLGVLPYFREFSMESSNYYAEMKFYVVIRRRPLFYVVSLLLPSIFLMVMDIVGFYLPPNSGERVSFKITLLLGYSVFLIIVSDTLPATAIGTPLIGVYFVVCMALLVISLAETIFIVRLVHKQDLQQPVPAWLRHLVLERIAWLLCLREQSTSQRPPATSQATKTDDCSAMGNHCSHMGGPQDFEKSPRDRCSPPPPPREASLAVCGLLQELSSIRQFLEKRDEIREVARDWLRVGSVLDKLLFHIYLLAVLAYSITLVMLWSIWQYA

T2: CCK1 (CCKA) (h) (human), P32238
T2 chain: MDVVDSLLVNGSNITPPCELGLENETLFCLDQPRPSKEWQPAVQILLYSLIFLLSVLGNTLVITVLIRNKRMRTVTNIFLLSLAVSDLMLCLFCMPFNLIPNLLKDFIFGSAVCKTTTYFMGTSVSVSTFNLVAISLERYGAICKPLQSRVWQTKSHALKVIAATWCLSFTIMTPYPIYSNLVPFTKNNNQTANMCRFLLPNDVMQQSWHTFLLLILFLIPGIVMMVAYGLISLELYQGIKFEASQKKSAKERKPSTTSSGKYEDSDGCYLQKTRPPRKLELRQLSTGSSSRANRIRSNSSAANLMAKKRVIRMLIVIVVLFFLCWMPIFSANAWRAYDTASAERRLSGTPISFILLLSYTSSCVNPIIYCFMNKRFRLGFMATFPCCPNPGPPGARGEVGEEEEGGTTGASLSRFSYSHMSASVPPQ

T3: AR (h) (human), P10275
T3 chain: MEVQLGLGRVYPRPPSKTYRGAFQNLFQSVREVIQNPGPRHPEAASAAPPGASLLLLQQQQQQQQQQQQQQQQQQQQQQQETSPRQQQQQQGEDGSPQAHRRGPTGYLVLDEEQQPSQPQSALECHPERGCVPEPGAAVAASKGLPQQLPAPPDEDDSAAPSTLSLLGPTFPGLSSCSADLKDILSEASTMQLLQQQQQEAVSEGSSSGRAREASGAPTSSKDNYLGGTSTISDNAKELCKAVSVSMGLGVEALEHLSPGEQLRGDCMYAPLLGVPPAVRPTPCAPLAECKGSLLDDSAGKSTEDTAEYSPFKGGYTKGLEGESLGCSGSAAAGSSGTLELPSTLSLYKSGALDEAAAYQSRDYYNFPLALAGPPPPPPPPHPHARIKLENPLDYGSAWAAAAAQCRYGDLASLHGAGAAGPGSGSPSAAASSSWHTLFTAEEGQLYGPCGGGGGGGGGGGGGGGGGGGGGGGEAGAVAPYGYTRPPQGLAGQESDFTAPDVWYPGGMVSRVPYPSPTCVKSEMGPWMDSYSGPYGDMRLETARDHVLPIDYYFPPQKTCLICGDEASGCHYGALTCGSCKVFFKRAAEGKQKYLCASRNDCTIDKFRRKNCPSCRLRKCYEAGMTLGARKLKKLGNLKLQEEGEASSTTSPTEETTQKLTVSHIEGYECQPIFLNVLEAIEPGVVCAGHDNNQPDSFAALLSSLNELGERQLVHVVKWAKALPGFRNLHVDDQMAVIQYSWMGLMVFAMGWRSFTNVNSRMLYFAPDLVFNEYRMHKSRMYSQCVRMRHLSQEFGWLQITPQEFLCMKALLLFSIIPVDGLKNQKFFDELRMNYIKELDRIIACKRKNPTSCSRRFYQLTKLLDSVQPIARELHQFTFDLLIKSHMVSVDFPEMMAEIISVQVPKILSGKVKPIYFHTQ

T4: A2A (h) (human), P29274
T4 chain: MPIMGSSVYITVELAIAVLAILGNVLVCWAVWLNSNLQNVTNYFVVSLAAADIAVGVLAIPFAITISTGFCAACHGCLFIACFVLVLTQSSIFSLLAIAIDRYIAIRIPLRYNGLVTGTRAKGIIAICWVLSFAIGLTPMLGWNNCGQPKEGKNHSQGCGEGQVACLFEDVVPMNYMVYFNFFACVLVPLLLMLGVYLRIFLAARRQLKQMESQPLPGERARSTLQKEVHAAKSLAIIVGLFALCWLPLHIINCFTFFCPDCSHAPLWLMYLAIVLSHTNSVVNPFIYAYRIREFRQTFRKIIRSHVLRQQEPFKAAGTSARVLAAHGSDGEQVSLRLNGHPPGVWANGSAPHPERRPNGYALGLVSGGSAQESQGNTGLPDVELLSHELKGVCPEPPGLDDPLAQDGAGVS

T5: M1 (h) (human), P11229
T5 chain: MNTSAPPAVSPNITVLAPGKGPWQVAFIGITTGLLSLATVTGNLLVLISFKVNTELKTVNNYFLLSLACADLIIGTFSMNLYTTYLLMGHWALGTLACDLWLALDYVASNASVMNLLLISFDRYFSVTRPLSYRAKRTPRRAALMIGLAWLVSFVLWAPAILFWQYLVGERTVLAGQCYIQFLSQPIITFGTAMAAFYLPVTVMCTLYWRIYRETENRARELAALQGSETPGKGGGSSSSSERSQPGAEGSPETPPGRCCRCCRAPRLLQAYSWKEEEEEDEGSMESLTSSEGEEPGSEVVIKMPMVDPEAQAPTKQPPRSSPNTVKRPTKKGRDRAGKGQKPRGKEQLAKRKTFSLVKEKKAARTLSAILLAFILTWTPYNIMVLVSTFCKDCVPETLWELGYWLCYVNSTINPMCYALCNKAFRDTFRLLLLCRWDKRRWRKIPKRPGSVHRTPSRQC


Tests used:
Test in all cases: radioligand displacement, compound at 10 µM
Conditions in all cases: remark: other sources report otherwise
V1a (h) (human), P37288 = biological target: V1a (h) (human), P37288
[1] = biological target: mu (MOP) (h) (human), P35372
Sequence of mu (MOP) (h) (human), P35372 (P35372 whole entry): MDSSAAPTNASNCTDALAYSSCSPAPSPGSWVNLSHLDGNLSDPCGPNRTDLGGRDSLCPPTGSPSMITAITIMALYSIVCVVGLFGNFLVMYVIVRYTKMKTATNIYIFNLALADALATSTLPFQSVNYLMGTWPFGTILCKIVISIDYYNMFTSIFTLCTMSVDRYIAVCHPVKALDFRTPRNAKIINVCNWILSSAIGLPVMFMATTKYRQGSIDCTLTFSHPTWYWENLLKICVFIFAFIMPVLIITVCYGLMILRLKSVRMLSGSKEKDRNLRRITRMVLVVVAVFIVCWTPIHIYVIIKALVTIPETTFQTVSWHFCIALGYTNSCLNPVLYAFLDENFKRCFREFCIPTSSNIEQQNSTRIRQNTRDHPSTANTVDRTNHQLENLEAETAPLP

[2] = biological target: T1, 5-HT3 (h) (human), P46098
[3] = biological target: T2, CCK1 (CCKA) (h) (human), P32238
AR (h) (human), P10275 = biological target: T3, AR (h) (human), P10275
A2A (h) (human), P29274 = biological target: T4, A2A (h) (human), P29274
M1 (h) (human), P11229 = biological target: T5, M1 (h) (human), P11229
[4] = substrate: N neuronal alpha 4beta 2 (h) (human), P43681

% Inhibition of Specific Binding (V1a (h) (human), P37288) [%]	% Inhibition of Specific Binding [1] [%]	% Inhibition of Specific Binding [2] [%]	% Inhibition of Specific Binding [3] [%]	% Inhibition of Specific Binding (AR (h) (human), P10275) [%]	% Inhibition of Specific Binding (A2A (h) (human), P29274) [%]	% Inhibition of Specific Binding (M1 (h) (human), P11229) [%]	% Inhibition of Specific Binding [4] [%]	Binder
1	-10	4	16	-5	-16	8	-2	CPPTQFC (here or on the partner: N-terminal hexanoyl (Hex); Cys1 and Cys7 cyclised through tMeBn carrying DOTA-AET; free C-terminal acid (-OH)) [Hex-[Cys(tMeBn(DOTA-AET))-Pro-Pro-Thr-Gln-Phe-Cys]-OH (3BP-3554)]
16	2	2	24	3	-4	6	-8	CPPTQFCD (here or on the partner: N-terminal hexanoyl (Hex); Cys1 and Cys7 cyclised through tMeBn carrying DOTA-PP; C-terminal amide) [Hex-[Cys(tMeBn(DOTA-PP))-Pro-Pro-Thr-Gln-Phe-Cys]-Asp-NH2 (3BP-3407)]
